Values belong to the binder of their own block, whether it stands above or below them.
Tests used:
Peptide_095 = target: T1, Peptide_095 (human); assay: peptide microarray, 0.04 ug/mL
T1 construct: 15-mer of hTrx1 on microarray
T1 peptide: QFFKKGQKVGEFSGA
Protocol: (§1) 5, 1, 0.2, 0.04, 0.008 and 0.0016 μg/mL serial dilutions were incubated on a single multi-well microarray slide at 30° C. for 1 hour. The slide includes 21 individual mini-arrays (one mini-array per sample dilution).
(§2) DyLight 650 was used as a label. False-positive binding to a peptide was evaluated by performing one additional control incubation in which only a secondary antibody was applied on the same microarray slide. Before performing each step, the microarrays were washed with a washing buffer.

Peptide_086 = target: T2, Peptide_086 (human); assay: peptide microarray, 0.04 ug/mL
T2 construct: 15-mer of hTrx1 on microarray
T2 peptide: CEVKCMPTFQFFKKG
Protocol: as §1, §2

Peptide_012 = target: T3, Peptide_012 (human); assay: peptide microarray, 0.04 ug/mL
T3 construct: 15-mer on microarray; not native form, includes recombinant insert region
T3 peptide: HHHHHHHVKQIESKT
Protocol: as §1, §2

Peptide_019 = target: T4, Peptide_019 (human); assay: peptide microarray, 0.04 ug/mL
T4 construct: 15-mer of hTrx1 on microarray
T4 peptide: VKQIESKTAFQEALD
Protocol: as §1, §2

Peptide_015 = target: T5, Peptide_015 (human); assay: peptide microarray, 0.04 ug/mL
T5 construct: 15-mer on microarray; not native form, includes recombinant insert region
T5 peptide: HHHHVKQIESKTAFQ
Protocol: as §1, §2

Peptide_093 = target: T6, Peptide_093 (human); assay: peptide microarray, 0.04 ug/mL
T6 construct: 15-mer of hTrx1 on microarray
T6 peptide: TFQFFKKGQKVGEFS
Protocol: as §1, §2

[1] = target: T7, human thioredoxin-1 (Trx1) (human, UniProt P10599 1-105); assay: ELISA on 100 ng coated Trx1, antibody titration, Prism fit
T7 construct: also called hTrx1; hTRX1
T7 sequence (looked up): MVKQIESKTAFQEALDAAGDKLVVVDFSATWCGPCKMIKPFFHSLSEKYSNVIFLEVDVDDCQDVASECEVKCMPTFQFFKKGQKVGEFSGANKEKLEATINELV
Protocol: 100 μl of a coating buffer and 100 ng of Trx1 were mixed and dispensed to each well, and then reacted at 4° C. for 16 hours or more. After the reaction solution was removed, 200 μl of PBSA was dispensed to each well and reacted at 37° C. for 120 minutes. […] After the reaction solution was removed, washing was performed by dispensing 200 μl of a washing buffer to each well. The above-described process was performed two times.
After the reaction solution was removed, washing was performed by dispensing 200 μl of a washing buffer to each well. The above-described process was performed three times.

Peptide_052 [2] = target: T8, Peptide_052 (human); assay: peptide microarray, 5 ug/mL
T8 construct: 15-mer of hTrx1 on microarray
T8 peptide: CKMIKPFFHSLSEKY
Protocol: as §1, §2

Peptide_049 [3] = target: T9, Peptide_049 (human); assay: peptide microarray, 5 ug/mL
T9 construct: 15-mer of hTrx1 on microarray
T9 peptide: CGPCKMIKPFFHSLS
Protocol: as §1, §2

Peptide_047 [4] = target: T10, Peptide_047 (human); assay: peptide microarray, 5 ug/mL
T10 construct: 15-mer of hTrx1 on microarray
T10 peptide: TWCGPCKMIKPFFHS
Protocol: as §1, §2

Peptide_054 [5] = target: T11, Peptide_054 (human); assay: peptide microarray, 5 ug/mL
T11 construct: 15-mer of hTrx1 on microarray
T11 peptide: MIKPFFHSLSEKYSN
Protocol: as §1, §2

Peptide_048 [6] = target: T12, Peptide_048 (human); assay: peptide microarray, 5 ug/mL
T12 construct: 15-mer of hTrx1 on microarray
T12 peptide: WCGPCKMIKPFFHSL
Protocol: as §1, §2

Peptide_053 [7] = target: T13, Peptide_053 (human); assay: peptide microarray, 5 ug/mL
T13 construct: 15-mer of hTrx1 on microarray
T13 peptide: KMIKPFFHSLSEKYS
Protocol: as §1, §2

Peptide_056 [8] = target: T14, Peptide_056 (human); assay: peptide microarray, 5 ug/mL
T14 construct: 15-mer of hTrx1 on microarray
T14 peptide: KPFFHSLSEKYSNVI
Protocol: as §1, §2

Peptide_046 [9] = target: T15, Peptide_046 (human); assay: peptide microarray, 5 ug/mL
T15 construct: 15-mer of hTrx1 on microarray
T15 peptide: ATWCGPCKMIKPFFH
Protocol: as §1, §2

Peptide_055 [10] = target: T16, Peptide_055 (human); assay: peptide microarray, 5 ug/mL
T16 construct: 15-mer of hTrx1 on microarray
T16 peptide: IKPFFHSLSEKYSNV
Protocol: as §1, §2

Peptide_050 [11] = target: T17, Peptide_050 (human); assay: peptide microarray, 5 ug/mL
T17 construct: 15-mer of hTrx1 on microarray
T17 peptide: GPCKMIKPFFHSLSE
Protocol: as §1, §2

Peptide_057 [12] = target: T18, Peptide_057 (human); assay: peptide microarray, 5 ug/mL
T18 construct: 15-mer of hTrx1 on microarray
T18 peptide: PFFHSLSEKYSNVIF
Protocol: as §1, §2

Peptide_052 [13] = target: T8, Peptide_052; assay: peptide microarray, head 0.08 ug (text 0.008 ug/mL)
Protocol: as §1, §2

Peptide_049 [14] = target: T9, Peptide_049; assay: as above
Protocol: as §1, §2

Peptide_047 [15] = target: T10, Peptide_047; assay: as above
Protocol: as §1, §2

Peptide_054 [16] = target: T11, Peptide_054; assay: as above
Protocol: as §1, §2

Peptide_048 [17] = target: T12, Peptide_048; assay: as above
Protocol: as §1, §2

Peptide_053 [18] = target: T13, Peptide_053; assay: as above
Protocol: as §1, §2

Peptide_056 [19] = target: T14, Peptide_056; assay: as above
Protocol: as §1, §2

Peptide_046 [20] = target: T15, Peptide_046; assay: as above
Protocol: as §1, §2

Peptide_055 [21] = target: T16, Peptide_055; assay: as above
Protocol: as §1, §2

Peptide_050 [22] = target: T17, Peptide_050; assay: as above
Protocol: as §1, §2

Peptide_057 [23] = target: T18, Peptide_057; assay: as above
Protocol: as §1, §2

Peptide_052 [24] = target: T8, Peptide_052; assay: peptide microarray, 0.0016 ug/mL
Protocol: as §1, §2

Peptide_047 [25] = target: T10, Peptide_047; assay: peptide microarray, 0.0016 ug/mL
Protocol: as §1, §2

Peptide_054 [26] = target: T11, Peptide_054; assay: peptide microarray, 0.0016 ug/mL
Protocol: as §1, §2

Peptide_057 [27] = target: T18, Peptide_057; assay: peptide microarray, 0.0016 ug/mL
Protocol: as §1, §2

Peptide_004 = target: T19, Peptide_004 (human); assay: peptide microarray, 0.04 ug/mL
T19 construct: 15-mer on microarray; not native form, recombinant insert region
T19 peptide: AADVHSQHHHHHHHH
Protocol: as §1, §2

Peptide_005 = target: T20, Peptide_005 (human); assay: peptide microarray, 0.04 ug/mL
T20 construct: 15-mer on microarray; not native form, recombinant insert region
T20 peptide: ADVHSQHHHHHHHHV
Protocol: as §1, §2

signal (blank-control = 1) (Peptide_095): 1.66
signal (blank-control = 1) (Peptide_086): 1.14
signal (blank-control = 1) (Peptide_012): 1.15
signal (blank-control = 1) (Peptide_019): 1.2
signal (blank-control = 1) (Peptide_015): 1.69
signal (blank-control = 1) (Peptide_093): 2.46
Kd [1]: 0.13 nM
signal (blank-control = 1) (Peptide_052 [2]): 5.14
signal (blank-control = 1) (Peptide_049 [3]): 1.11
signal (blank-control = 1) (Peptide_047 [4]): 4.89
signal (blank-control = 1) (Peptide_054 [5]): 1.46
signal (blank-control = 1) (Peptide_048 [6]): 2.15
signal (blank-control = 1) (Peptide_053 [7]): 6.49
signal (blank-control = 1) (Peptide_056 [8]): 2.86
signal (blank-control = 1) (Peptide_046 [9]): 6.2
signal (blank-control = 1) (Peptide_055 [10]): 3.57
signal (blank-control = 1) (Peptide_050 [11]): 0.54
signal (blank-control = 1) (Peptide_057 [12]): 2.44
signal (blank-control = 1) (Peptide_052 [13]): 1.23
signal (blank-control = 1) (Peptide_049 [14]): 1.43
signal (blank-control = 1) (Peptide_047 [15]): 1.52
signal (blank-control = 1) (Peptide_054 [16]): 0.63
signal (blank-control = 1) (Peptide_048 [17]): 7.68
signal (blank-control = 1) (Peptide_053 [18]): 1.76
signal (blank-control = 1) (Peptide_056 [19]): 1.11
signal (blank-control = 1) (Peptide_046 [20]): 2.11
signal (blank-control = 1) (Peptide_055 [21]): 0.99
signal (blank-control = 1) (Peptide_050 [22]): 0.65
signal (blank-control = 1) (Peptide_057 [23]): 2.27
signal (blank-control = 1) (Peptide_052 [24]): 1.15
signal (blank-control = 1) (Peptide_047 [25]): 1.15
signal (blank-control = 1) (Peptide_054 [26]): 0.55
signal (blank-control = 1) (Peptide_057 [27]): 1.73
B1: monoclonal antibody B264 (antibody, mouse IgG1, kappa, V domains shown)
VH: QVQLQQSGAELARPGASVKMSCKASGYTFTSYTMHWVKQRPGQGLEWIGYINPTSDYTNYNQKFKDKATLTADKSSSTAYMQLSSLTSEDSAVYFCASEGGFLYYFDYWGQGTTLTVSS
VL: DVLMTQTPLSLPVSLGDQASISCRSSQSIVHSNGNTYLEWYLQKPGQSPKLLIYKVSNRFSGVPDRFSGSGSGTDFTLKISRVEAEDLGVYYCFQGSHVPYTFGGGTKLEIKR
notes: also called AB264; B264 (Trx1-mIgG1)

signal (blank-control = 1) (Peptide_004): 1.14
signal (blank-control = 1) (Peptide_005): 1.6
Kd [1]: 0.011 nM
signal (blank-control = 1) (Peptide_052 [2]): 3.84
signal (blank-control = 1) (Peptide_049 [3]): 2.89
signal (blank-control = 1) (Peptide_047 [4]): 5.58
signal (blank-control = 1) (Peptide_054 [5]): 2.36
signal (blank-control = 1) (Peptide_048 [6]): 6.1
signal (blank-control = 1) (Peptide_053 [7]): 2.45
signal (blank-control = 1) (Peptide_056 [8]): 2.89
signal (blank-control = 1) (Peptide_046 [9]): 6.41
signal (blank-control = 1) (Peptide_055 [10]): 2.08
signal (blank-control = 1) (Peptide_050 [11]): 2.19
signal (blank-control = 1) (Peptide_057 [12]): 2.39
signal (blank-control = 1) (Peptide_052 [13]): 1.12
signal (blank-control = 1) (Peptide_049 [14]): 1.31
signal (blank-control = 1) (Peptide_047 [15]): 1.11
signal (blank-control = 1) (Peptide_054 [16]): 0.71
signal (blank-control = 1) (Peptide_048 [17]): 7.25
signal (blank-control = 1) (Peptide_053 [18]): 1.44
signal (blank-control = 1) (Peptide_056 [19]): 1.07
signal (blank-control = 1) (Peptide_046 [20]): 1.64
signal (blank-control = 1) (Peptide_055 [21]): 0.85
signal (blank-control = 1) (Peptide_050 [22]): 0.52
signal (blank-control = 1) (Peptide_057 [23]): 2.09
signal (blank-control = 1) (Peptide_052 [24]): 1.37
signal (blank-control = 1) (Peptide_047 [25]): 1.18
signal (blank-control = 1) (Peptide_054 [26]): 0.73
signal (blank-control = 1) (Peptide_057 [27]): 1.93
B2: monoclonal antibody B266-1 (antibody, human IgG1)
light: QIVLTQSPAIMSASPGEKVTMTCSASSRISYMYWYQQKPGTSPKRWIYDTSKLASGVPARFSGSGSGTSYSLTISTMEAEDAATYYCHQRSSYPTFGAGTKLELKSVAAPSVFIFPPSDEQLKSGTASVVCLLNNFYPREAKVQWKVDNALQSGNSQESVTEQDSKDSTYSLSSTLTLSKADYEKHKVYACEVTHQGLSSPVTKSFNRGEC
heavy: not shown
notes: B266 with the Fc part changed to human IgG1; also called B266-1 (Trx1-hIgG1); B266-1 (hTrx1-hIgG1)

Source: patent US20240192215A1 (E AND S HEALTHCARE, published 2024)
